Here are results for 2 molecules from PMC3268005 (Journal of the American Chemical Society, 2011).

For data set [1], the target named is Candida albicans cytosolic manganese superoxide dismutase (CaMnSODc) (Candida albicans). Nature of the data set: crystal structure.
Data set [2] has the same target. Nature of the data set: SEC. (In general: Size exclusion chromatography separates by hydrodynamic size, large species first.)
Data set [3] shares this target. Nature of the data set: crystal structure. The source holds these as a separate data set.
The data set “SEC” deals with the molecule itself. Nature of the data set: SEC.

One may read the stoichiometry N as a count of units in the complex or per binding partner. In the case of “Candida albicans cytosolic manganese superoxide dismutase (CaMnSODc) (enzyme)”, the stoichiometry N in data set [1] came to 4; in data set [2], 2; in data set [3] it was 2.

B1: Saccharomyces cerevisiae mitochondrial manganese superoxide dismutase (ScMnSOD) (enzyme, UniProt P00447 27-233, looked up)
chain: KVTLPDLKWDFGALEPYISGQINELHYTKHHQTYVNGFNTAVDQFQELSDLLAKEPSPANARKMIAIQQNIKFHGGGFTNHCLFWENLAPESQGGGEPPTGALAKAIDEQFGSLDELIKLTNTKLAGVQGSGWAFIVKNLSNGGKLDVVQTYNQDTVTGPLVPLVAIDAWEHAYYLQYQNKKADYFKAIWNVVNWKEASRRFDAGKI
Regarding B1, the “stoichiometry N” value in the data set “SEC” was found to be 4.
